# Assay results reported in the domain aggregation screens of Martell et al. (2025).
# Test: soluble fraction after stress (log2 fold change); higher = more stays soluble; pooled small domains, quantitative proteomics
# Details: stress: 75 degC
# 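Also: 20 min heating vs room temperature control held 20 min.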
row,Sequence,soluble fraction (log2)
1,HMNPTTQIQYNLPKSEFVSIYIYDLIGNRVKSLINNYQDAGYKSVYWDAMNDLGQPVSAGMYIY,-0.0727
2,HMNQKKFIQADYEDRLFDHLAFEVKDMEKIISMMRREKFTITDEPFRLSPTGSLIAFVEDPDRTLIELIER,-0.41
3,HMNQNAMIGAHIRNLRLAKKLTLKQLSDESGLSVGFLSQLERGMSSIAIDTLARLAHILGADLSSFF,-2.65
4,HMNQRQLQIKQMLDVAQEVFLKQLKTVFPDVSEMTIRRDLILLEDMGYAVRTHGGAVSINRF,-2.42
5,HMNQRTATVTASQLNVRSGPSTAYSIVHVLRQGETVEVIGESDGWYQIRLKDGRVGWSSGQYLNLN,-0.142
6,HMNQSAVMAERMKQTKNRILQTAKEIFLEQGYKRTTIRQIVERSGITSGSIYNIFSSKEEIFSALVDDL,-3
7,HMNQSYQLWIKDDELGPTPRSVGVLNEHFEVDPAALTNYDAELLRRATFGISLEPRGGSPTGQP,-0.192
8,HMNQTPQISYSQFIADVRSGQIKDVNIDSDNRTIVGHKFSGEEFTTFSPGDNKLVDELLNYNVEIKTSP,0.611
9,HMNREEFLSQLERLLYDIPAQEREEALEYYNGYFDDAGKEKEAEVIQELGSPGKVAAIIKADLSG,0.12
10,HMNRETAISIYRILHILEEPYKEVFTLRTLGDLSYREIADIFGKQENWARVTYHRAKLKIREALVS,-2.23
11,HMNRIFQERVVPAELDTLRADKVAASLFSDFSRNELAHWIKMGDLSINGGVKKAKDKLFEGDVLILDVEIV,-0.944
12,HMNRKILVLLAGKEQITDNVSVMQSIHRYAFINTATINKAQHEILIEKEEIRQEALTLIHEFLK,-0.97
13,HMNRKLKAKATREKIYKSAEKLFSQNDYNKVSVDAIVEAAGVAKGSFYVHFASKDALIAMLINDH,-0.448
14,HMNRMKLLREQHNLSQTDLAKILNISRQSYNFYENEKRDPDTTMLIRIADFFNVSLDYLLGRTNN,-2.84
15,HMNRPYVELFSGLGQEEAQQIVQKLQEDEVDYKFSGDSTILVKEDVVDQTKATLVQEGYPKS,0.153
16,HMNSEEINDVRKAVDELPTHLREILLLNYFQQMSYVQISDSLEIPLGTVKSRLHAAVAAFRNAWQSSQEE,-0.484
17,HMNSEELFLRRIAQELIDQHGKDLHRIIVVLPSNRSKVFLKKFLFEILGSAFLTPQLMLLPQFVKSIV,-0.425
18,HMNSFGWESFVGEKGVTDTDLRPSGWIVIKDKRLFALTEGTFIEKGVSVEILSVEGNRIVVREIS,-2.9
19,HMNSHKIIDRLNQMITEKDLSEEMPAITEAFKNNERSAEDLKKYVAENLSKKLNAEEREKFVSLILQYRN,-0.0788
20,HMNSILFAITKEGGVVYGGKPVGVNGVRPLVRRLLQSEEMPVILQVDEKADAGLVIRVIDESKLGGASKV,-0.372
21,HMNSIQEQIEKYVYSLAPVTIERYESLKNGDIEDIEFEKLRKSISSKIINEKIDNKKQVAILSHLKKMYSD,-0.159
22,HMNSKIIVESIIKSKNGIAKVADLVEGGVSRQSIKKMYADGYIKRISRGYYTLTSEPVSSDEQVISS,-0.645
23,HMNSKMTYSELITSMENKEVESVKISSSGDVASVKLKNSKTEKEVKIPSLDSFMTYTEQYLKTGEITLEE,0.0529
24,HMNSKMTYSELVTNITNKEVESIKISSTGSTASVKLKNSKSEKEVNIPSLDSFMSYTEEYLKTGDFTLDEE,0.586
25,HMNSLKNKNNLIALVGASNDKNKYGNKILLDLVSKGHNVVPINPKEDTVAGLKSYNNVSELSEKPSI,-0.523
26,HMNSLPFSNFMNEVEAGRVVEVKIQGNNISGVLANGKTFSTYSPNYPELVEKLSSNGVSIVATPQ,0.28
27,HMNSRTLAYSDFIRKVDKGEVSAVVIDGEQVQVQTKDGQTFVTIQPQSEQMNDKLVEQLIAKDISVKAERQ,-0.0843
28,HMNSSLFLARQVHALRKKAGLTLQQLSRKSDVSVSTLSKIEKGQLSPTYEKIVSLARGLDVPIAALFHE,-2.45

row,Sequence,soluble fraction (log2)
1,HMNSSTVDLAKEFLIDLLSSVEKMPASEVQEEAKNAGYSVASIRRAKDNLNIKPFKDGSAWYWKLPSIFK,-0.329
2,HMNSSTYIVTFKVDGEEDIVETYQWGDRIIVPEVEAKDDYVFIGWDAQIPEFMPERNLEFTAI,-0.895
3,HMNSTNYQVIITANGGLNIRAGASTAYARIGGYAKGTVVTILAESNGFGKTDKGWISLNYTSKDLD,-3.11
4,HMNTAALSLQRRNEIKKWLLEEKTLTVAALSNRFNVTYETIRRDLEILEKEGFLKKVYGGAALNERV,-2.83
5,HMNTAIDGLIEKVGMFAMEKKAISVDQVKENFSINGEQAESVIKQLETIGVLGKKNEDGTHTVM,0.159
6,HMNTDALIGKTGYVTEIVGERHGRIQFSGGEWSARTEGVSIPVGAEVRVDRIDGATAVVSAV,0.114
7,HMNTDVEKQKVFTALFDDYFRRNSMTSLEKQLFLTALKTNFQNAQKTVAKDHPYYATYSLIISAIENYR,-0.525
8,HMNTEEKILEKEFLMLYSELGLQPKNIYELMENTGLKYEKLVEMLLQLQLKGLVEQPSYNYYSRL,-1.28
9,HMNTEEVGSYLKKLRLEHSFTQKELAGKLYITHQAVSNWEKGKALPDIGILSQLGDIYGISIDNLLLK,-2.04
10,HMNTEKRVFAGVENTRLDHFLVEQFPEFSRTFIQQMIKSANVIVNGNIEKASYKLREGDTIMTRPM,-0.489
11,HMNTELFTKNLFNKLEVLLGEKNWKSKTAQLLNISSDAFYKKIRNESQLNLHELLLIKDTFKISIDALLDE,-1.35
12,HMNTETAVTKAIDQIQVMMDLRNRSVSFTRDQETGTDIIKVIDDNTGDTIRQMPSEELLTFMKNLTQ,0.165
13,HMNTFKNIFIQEGDLFNLKKNDNQIIFAKEGILINENKKIFRLLNGKIISTNNNRLIGFEFDKIDYNLSN,0.561
14,HMNTGIPHQEVIKKLYSFAEGGDWKGLKEELNRIKEYTLFYNSVKELADSFEINRLIEKLKTYIF,-0.127
15,HMNTGLSEREHEIAQLVLQGRTYAEIGAELFISPRTAEHHIGQIRRRLAATSRSDLLAKLRVAMNTTEGAG,-2.36
16,HMNTISYTELIKQIDEGNVEKVEMTVGSTSVKVKLQGQEEEKKAIVPNTQAFVELIQEKTLEGNQIDLKQN,0.0122
17,HMNTLSPVRILAILDGRSSMAEWQLAEELGVSIDNLSEILNKMSTDGQIRLVPSEDGRMVVP,0.597
18,HMNTPALRQRTQDVPALLIHFAKYFATKGQTPISFAPDFLEALKDYPWPGNVRELRNLVESMVV,-0.133
19,HMNTPHLTPREREVLKGIVDGLINKEIAARMGVSVATVITHRNNLTEKLGTRSVSALTIFAVMHGIVR,-2.55
20,HMNTPNYDVLYRGLADADAGQIMEALQKSNIPFKVDSHSGVLLVPADQVHEARLKLASQGLPRG,-0.119
21,HMNTPTLLLYGGKDHSVPEAGIRHLRAHLSANDRGEYRFYPNAPHLLLQSRQWQQVSQDISQWLAMT,0.037
22,HMNTRWDDAAQTWLRKVIEQQPVLVQISAAKRLRDQAEQRAREAGEEVVTEQHVKRAGLELGFGEP,0.0588
23,HMNTSITVPSLKGLSQEAATLKMERLGLHVEVSDTGFVRSLAFGTVLQQSIAPGEKVKPGRLVYITINSD,-2.2
24,HMNTVAGAISDLSFKVRGSEDIEKLNRLKALSIQAKLDVQGQEEAERLISELEAKYGSLGMTVDKVSGKIA,0.0323
25,HMNTYEIIGGDNRARGPVTGEELSQWIREGRASGHTMARVSDGEHWQPLGSFPEFVGPLQGLPW,0.0698
26,HMNTYVLPDALKSQLSVEDTGMLTKQLQALPETLAEGVLDSLSQMLSKNTLQNPVGWMLAVMKRAREGNFN,-0.305
27,HMNVAVSEADAKAAALERVSGATEADIRMELELDDGYYVYEGDIIYQQKEYEFEIDAQTGKFLKWSEER,-0.121
